Measured values as given in patent US20200317768A1 (published 2020).

Assays:
Assay in all cases: SPR (Biacore), antibody captured on chip, FcgR extracellular domain as analyte, 25 C
[1] = target: T1, cynomolgus monkey FcγRIIa2 extracellular domain with C-terminal His-tag (cynomolgus monkey)
T1 construct: Expressed in FreeStyle 293 cells and purified; also called cyno FcγRIIa2; cynoFcgRIIa2; not shown: C-terminal His-tag
T1 chain: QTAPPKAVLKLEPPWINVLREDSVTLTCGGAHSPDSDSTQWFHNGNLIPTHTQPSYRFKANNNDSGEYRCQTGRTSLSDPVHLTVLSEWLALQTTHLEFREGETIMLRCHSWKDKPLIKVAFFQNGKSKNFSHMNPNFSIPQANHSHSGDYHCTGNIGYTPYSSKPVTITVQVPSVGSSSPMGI
Method: (§1) The kinetic analysis of interactions between these antibodies and FcγR was carried out using BIACORE® T200 or BIACORE® 4000 (GE Healthcare). HBS-EP+ (GE Healthcare) was used as the running buffer, and the measurement temperature was set to 25° C. A chip produced by immobilizing Protein A. Protein A/G or mouse anti-human IgG kappa light chain (BD Biosciences) onto a Series S Sensor Chip CM4 or CM5 (GE Healthcare) by the amine-coupling method was used. […] After the measurement, the antibody captured on the chip was washed off by allowing reaction with 10 mM glycine-HCl, pH1.5 and 25 mM NaOH so that the chip was regenerated and used repeatedly. The sensorgrams obtained as measurement results were analyzed by the 1:1 Langmuir binding model using the BIACORE® Evaluation Software to calculate the binding rate constant ka (L/mol/s) and dissociation rate constant kd (l/s), and the dissociation constant KD (mol/L) was calculated from these values. […] Regarding such interactions, KD values were calculated using the following 1:1 binding model described in BIACORE® T100 Software Handbook BR1006-48 Edition AE.
(§2) The resultant variants were expressed using M103202L889-SK1 as light chain and their affinity to human and cynoFcγRs were evaluated (Table 20).

[2] = target: T2, cynomolgus monkey FcγRIIa3 extracellular domain with C-terminal His-tag (cynomolgus monkey)
T2 construct: Expressed in FreeStyle 293 cells and purified; also called cyno FcγRIIa3; cynoFcgRIIa3; not shown: C-terminal His-tag
T2 chain: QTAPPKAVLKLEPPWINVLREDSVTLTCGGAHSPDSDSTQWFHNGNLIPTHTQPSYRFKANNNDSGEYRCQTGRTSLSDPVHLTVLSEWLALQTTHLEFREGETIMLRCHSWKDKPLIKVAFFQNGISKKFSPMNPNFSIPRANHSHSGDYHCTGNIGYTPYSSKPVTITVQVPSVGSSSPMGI
Method: as §1, §2

[3] = target: T3, cynomolgus monkey FcγRIIa1 extracellular domain with C-terminal His-tag (cynomolgus monkey)
T3 construct: Expressed in FreeStyle 293 cells and purified; also called cyno FcγRIIa1; cynoFcgRIIa1; not shown: C-terminal His-tag
T3 chain: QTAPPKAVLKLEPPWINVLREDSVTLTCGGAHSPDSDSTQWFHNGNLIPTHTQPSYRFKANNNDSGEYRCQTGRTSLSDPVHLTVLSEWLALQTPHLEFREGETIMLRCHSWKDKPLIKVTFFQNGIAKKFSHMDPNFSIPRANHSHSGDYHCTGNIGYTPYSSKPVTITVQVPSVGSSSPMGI
Method: as §1, §2

[4] = target: T4, human FcγRIIaH extracellular domain with C-terminal His-tag (human, UniProt P12318 34-217)
T4 construct: Expressed in FreeStyle 293 cells and purified; also called human FcγRIIa (type H); FcgRIIaH; not shown: C-terminal His-tag
T4 sequence: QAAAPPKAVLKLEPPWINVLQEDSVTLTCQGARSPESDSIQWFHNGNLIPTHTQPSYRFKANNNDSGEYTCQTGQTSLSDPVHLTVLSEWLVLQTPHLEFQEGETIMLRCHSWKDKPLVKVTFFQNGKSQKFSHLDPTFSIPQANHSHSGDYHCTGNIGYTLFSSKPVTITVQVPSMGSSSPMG
Method: as §1, §2

[5] = target: T5, human FcγRIIIaV extracellular domain with C-terminal His-tag (human, UniProt P08637 17-208)
T5 construct: Expressed in FreeStyle 293 cells and purified; also called FcgRIIIaV; not shown: C-terminal His-tag
T5 sequence (P08637 17-208 F176V): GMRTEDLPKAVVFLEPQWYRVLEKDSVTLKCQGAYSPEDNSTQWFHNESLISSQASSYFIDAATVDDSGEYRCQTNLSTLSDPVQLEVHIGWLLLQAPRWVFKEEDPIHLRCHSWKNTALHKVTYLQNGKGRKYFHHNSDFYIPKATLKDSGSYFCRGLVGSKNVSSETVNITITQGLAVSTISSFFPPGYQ
Method: as §1, §2

[6] = target: T6, human FcγRIIaR extracellular domain with C-terminal His-tag (human, UniProt P12318 34-217)
T6 construct: Expressed in FreeStyle 293 cells and purified; also called human FcγRIIa (type R); FcgRIIaR; not shown: C-terminal His-tag
T6 chain: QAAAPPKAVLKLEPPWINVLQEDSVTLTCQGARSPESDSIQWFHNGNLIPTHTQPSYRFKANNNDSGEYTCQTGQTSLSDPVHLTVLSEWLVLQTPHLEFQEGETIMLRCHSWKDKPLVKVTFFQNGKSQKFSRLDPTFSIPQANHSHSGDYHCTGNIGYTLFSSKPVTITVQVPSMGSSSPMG
Method: as §1, §2

[7] = target: T7, human FcγRIIb extracellular domain with C-terminal His-tag (human, UniProt P31994 43-217)
T7 construct: Expressed in FreeStyle 293 cells and purified; also called humanFcgRIIb; not shown: C-terminal His-tag
T7 sequence: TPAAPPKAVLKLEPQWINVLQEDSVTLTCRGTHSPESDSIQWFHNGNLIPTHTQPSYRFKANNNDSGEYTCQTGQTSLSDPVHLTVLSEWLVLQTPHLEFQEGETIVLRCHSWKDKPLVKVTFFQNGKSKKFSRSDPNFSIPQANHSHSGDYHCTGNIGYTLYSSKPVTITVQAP
Method: as §1, §2

B1: M103205H795-MY171 / M103202L889-SK1 (antibody, human IgG1, kappa)
heavy: QVTLKESGPVLVKPTETLTLTCTVSGIDLSHDDISWVRQAPGKGLEWVGIISYAGSTYYASWAKGRLTISKDTSKNQVVLTMTNMDPVDTATYYCARGVPAYSHGGDLWGQGTLVTVSSASTKGPSVFPLAPSSKSTSGGTAALGCLVKDYFPEPVTVSWNSGALTSGVHTFPAVLQSSGLYSLSSVVTVPSSSLGTQTYICNVNHKPSNTKVDKKVEPKSCDKTHTCPPCPAPELLNGPSVFLFPPKPKDTLMISRTPEVTCVVVDVSEEDPEVKFNWYVDGVEVHNAKTKPREEQYNSTYRVVSVLTVLHQDWLNGKEYKCKVSNKALPAPIEKTISKAKGQPREPQVYTLPPSREEMTKNQVSLTCLVKGFYPSDIAVEWESNGQPENNYKTTPFVLDSDGSFFLYSKLTVDKSRWQQGNVFSCSVMHEALHNHYTQKSLSLSP
light: DIVMTQSPATLSLSPGERATLSCTSSQSVYHANWLSWFQQKPGQPPKLLIYWASTLAYGVPSRFSGSGSGTDFTLTISSLQPEDAATYYCAGGYGGGRYAFGQGTKVEIKRTVAAPSVFIFPPSDEQLKSGTASVVCLLNNFYPREAKVQWKVDNALQSGNSQESVTEQDSKDSTYSLSSTLTLSKADYEKHKVYACEVTHQGLSSPVTKSFNRGEC
notes: Position 396 variant derived from MY052, expressed with M103202L889-SK1 as light chain
Kd [1]: 23 µM | Kd [2]: 92 µM | Kd [3]: 2.3 µM | Kd [4]: 1.2 µM | Kd [5]: 5.9 µM | Kd [6]: 2.1 µM | Kd [7]: 12 µM
